Key:
Details in all cases: protein: recombinant; tags: C-terminal Strep on PafC; copies: 1;1; label: FAM; single strand
PafBC, PafB WYL variant = molecular target: T1, PafBC, PafB WYL variant (Mycobacterium smegmatis, UniProt A4ZHT0;A0QZ41 1-331;1-318, R214A;PafB:R211A); assay: EMSA; up to 16 uM; ssDNA EMSA: 22.5 mM Hepes-KOH pH 7.8, 135 mM NaCl, 20 mM KCl, 5 mM MgCl2, 1 mM DTT, 37 C 15 min, 10 nM DNA, 0-16 uM PafBC; RNAP EMSA: 20 mM Hepes-NaOH pH 8, 100 mM K-acetate, 36 mM NaCl, 10 mM MgCl2, 2 mM DTT, 37 C 30 min
T1 sequence 1: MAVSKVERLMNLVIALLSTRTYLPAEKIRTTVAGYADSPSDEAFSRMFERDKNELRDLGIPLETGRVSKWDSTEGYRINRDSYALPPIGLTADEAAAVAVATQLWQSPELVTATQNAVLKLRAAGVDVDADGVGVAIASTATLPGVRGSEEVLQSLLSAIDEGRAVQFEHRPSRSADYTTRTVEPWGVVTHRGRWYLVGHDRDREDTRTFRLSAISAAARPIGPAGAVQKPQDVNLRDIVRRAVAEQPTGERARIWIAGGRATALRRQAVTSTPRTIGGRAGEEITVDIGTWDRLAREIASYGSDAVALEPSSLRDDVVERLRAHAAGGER
T1 sequence 2: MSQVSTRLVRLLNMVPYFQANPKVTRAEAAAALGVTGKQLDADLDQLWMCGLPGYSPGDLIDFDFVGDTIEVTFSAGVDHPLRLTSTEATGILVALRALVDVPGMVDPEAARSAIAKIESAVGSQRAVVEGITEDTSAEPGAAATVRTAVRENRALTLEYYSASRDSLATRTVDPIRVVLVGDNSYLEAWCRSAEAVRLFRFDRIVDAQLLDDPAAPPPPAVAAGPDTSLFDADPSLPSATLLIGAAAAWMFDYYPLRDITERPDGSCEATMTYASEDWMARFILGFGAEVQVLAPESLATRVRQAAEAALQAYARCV

[1] = molecular target: T2, PafBC, PafB R181A/R204A/R208A (Mycobacterium smegmatis, UniProt A4ZHT0;A0QZ41 1-331;1-318, R204A;R208A;PafB:R181A); assay: as above
T2 sequence 1: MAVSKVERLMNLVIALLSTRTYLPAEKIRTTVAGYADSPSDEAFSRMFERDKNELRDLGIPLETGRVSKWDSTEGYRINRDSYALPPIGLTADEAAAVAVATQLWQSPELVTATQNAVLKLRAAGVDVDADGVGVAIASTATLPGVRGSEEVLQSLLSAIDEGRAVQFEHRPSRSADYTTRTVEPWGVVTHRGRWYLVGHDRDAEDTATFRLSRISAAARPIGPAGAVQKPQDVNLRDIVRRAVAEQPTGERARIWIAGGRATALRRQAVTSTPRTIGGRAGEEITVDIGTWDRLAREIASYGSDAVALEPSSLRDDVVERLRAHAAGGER
T2 sequence 2: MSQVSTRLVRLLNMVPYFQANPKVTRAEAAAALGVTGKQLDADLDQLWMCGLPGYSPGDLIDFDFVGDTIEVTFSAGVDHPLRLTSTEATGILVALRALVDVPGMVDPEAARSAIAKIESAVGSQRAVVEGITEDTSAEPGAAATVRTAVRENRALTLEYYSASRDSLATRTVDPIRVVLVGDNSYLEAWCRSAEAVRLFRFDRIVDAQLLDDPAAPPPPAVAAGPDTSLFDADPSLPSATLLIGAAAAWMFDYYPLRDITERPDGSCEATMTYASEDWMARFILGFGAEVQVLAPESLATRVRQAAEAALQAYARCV

PafBC, PafB Y196A = molecular target: T3, PafBC, PafB Y196A (Mycobacterium smegmatis, UniProt A4ZHT0;A0QZ41 1-331;1-318, Y196A); assay: as above
T3 sequence 1: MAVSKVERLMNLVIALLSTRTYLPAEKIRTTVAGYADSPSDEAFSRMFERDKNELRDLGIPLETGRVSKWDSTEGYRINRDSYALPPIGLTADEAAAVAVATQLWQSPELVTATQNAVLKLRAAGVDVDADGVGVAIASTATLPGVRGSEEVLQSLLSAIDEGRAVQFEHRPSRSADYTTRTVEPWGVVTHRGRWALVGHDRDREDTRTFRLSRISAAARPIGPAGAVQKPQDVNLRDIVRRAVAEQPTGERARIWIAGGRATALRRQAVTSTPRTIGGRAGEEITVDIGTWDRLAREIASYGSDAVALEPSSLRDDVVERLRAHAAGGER
T3 sequence 2: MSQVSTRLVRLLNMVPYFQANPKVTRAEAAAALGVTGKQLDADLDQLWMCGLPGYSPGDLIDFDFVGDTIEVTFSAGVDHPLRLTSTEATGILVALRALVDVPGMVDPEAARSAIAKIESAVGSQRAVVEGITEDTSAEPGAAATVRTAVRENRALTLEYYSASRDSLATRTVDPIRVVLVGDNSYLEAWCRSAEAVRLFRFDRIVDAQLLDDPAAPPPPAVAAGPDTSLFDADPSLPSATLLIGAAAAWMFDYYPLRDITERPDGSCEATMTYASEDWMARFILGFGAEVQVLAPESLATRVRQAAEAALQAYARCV

PafBC WT = molecular target: T4, PafBC WT (Mycobacterium smegmatis, UniProt A4ZHT0;A0QZ41 1-331;1-318); assay: EMSA; low micromolar affinity; ssDNA EMSA: 22.5 mM Hepes-KOH pH 7.8, 135 mM NaCl, 20 mM KCl, 5 mM MgCl2, 1 mM DTT, 37 C 15 min, 10 nM DNA, 0-16 uM PafBC; RNAP EMSA: 20 mM Hepes-NaOH pH 8, 100 mM K-acetate, 36 mM NaCl, 10 mM MgCl2, 2 mM DTT, 37 C 30 min
T4 sequence 1: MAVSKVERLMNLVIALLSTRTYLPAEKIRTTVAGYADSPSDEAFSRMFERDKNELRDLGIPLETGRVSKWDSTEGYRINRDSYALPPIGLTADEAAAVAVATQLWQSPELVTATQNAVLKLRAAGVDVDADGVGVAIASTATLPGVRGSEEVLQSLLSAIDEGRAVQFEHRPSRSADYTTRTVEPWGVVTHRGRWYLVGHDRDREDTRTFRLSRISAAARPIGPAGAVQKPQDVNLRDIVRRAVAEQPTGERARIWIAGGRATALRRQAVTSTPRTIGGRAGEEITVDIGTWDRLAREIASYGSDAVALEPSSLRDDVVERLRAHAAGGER
T4 sequence 2: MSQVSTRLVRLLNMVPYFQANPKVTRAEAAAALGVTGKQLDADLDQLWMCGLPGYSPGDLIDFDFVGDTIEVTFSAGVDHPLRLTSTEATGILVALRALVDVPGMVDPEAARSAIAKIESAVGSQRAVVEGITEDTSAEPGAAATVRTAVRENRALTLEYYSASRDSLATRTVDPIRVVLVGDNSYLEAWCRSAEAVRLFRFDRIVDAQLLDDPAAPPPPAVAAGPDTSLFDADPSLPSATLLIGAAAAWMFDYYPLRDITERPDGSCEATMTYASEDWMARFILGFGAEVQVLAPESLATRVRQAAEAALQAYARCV

TTTTTTTTTTTTTTTTTTTT (ssDNA) [dT20 ssDNA]
binding result (PafBC, PafB WYL variant): no binding | binding result [1]: no binding | binding result (PafBC, PafB Y196A): no binding | binding result (PafBC WT): binds

From PMC11804915, “Single-stranded DNA binding to the transcription factor PafBC triggers the mycobacterial DNA damage response”
